Molecular target: HLA-A*02:01 (Homo sapiens, UniProt P04439, D140Y/D185E/D98H/E176V/E277Q/G131W/G231S/I119V/I121R/I166T/I218V/L300P/L318F/N151K/N90K/P208A/P217A/Q86G/Q94H/R138H/R169H/T345S)
Assay: MHC binding assay: UV-ligand exchange with beta2m ELISA (peptide exchange yield)
Conditions: binding to HLA-A*02:01
Procedure, shortened: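 Values give exchange yield, measured by β2m ELISA: 100-fold-diluted monomers bound to streptavidin plates (1h, 37° C), probed with HRP anti-β2m at 2 ug/ml and read at 450 nm after TMB. Monomers came from UV-triggered cleavage of a photolabile peptide and exchange for the test peptide.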

Substance | Peptide exchange (MHC class I binding score, peptide exchange yield)
514 (ILVDWLVQV; listed as Homo sapiens) [compound 514] | “+++” (≥50 = +++)
515 (LLQELVLFL; listed as Homo sapiens) [compound 515] | “+++” (≥50 = +++)
516 (AVGPASILKEV; listed as Homo sapiens) [compound 516] | “++” (≥20% = ++)
517 (LLMPIPEGLTL; listed as Homo sapiens) [compound 517] | “+++” (≥50 = +++)
518 (KLNAEVACV; listed as Homo sapiens) [compound 518] | “+++” (≥50 = +++)
519 (GLLHLTLLL; listed as Homo sapiens) [compound 519] | “+++” (≥50 = +++)
520 (LAVHPSGVAL; listed as Homo sapiens) [compound 520] | “+” (≥10% = +)
521 (MLLTKLPTI; listed as Homo sapiens) [compound 521] | “+++” (≥50 = +++)
522 (TLWYRSPEV; listed as Homo sapiens) [compound 522] | “++” (≥20% = ++)
523 (YQIPRTFTL; listed as Homo sapiens) [compound 523] | “++” (≥20% = ++)
524 (ALIENLTHQI; listed as Homo sapiens) [compound 524] | “++” (≥20% = ++)
525 (VLLEAGEGLVTI; listed as Homo sapiens) [compound 525] | “+++” (≥50 = +++)
526 (RLAEVGQYEQV; listed as Homo sapiens) [compound 526] | “++” (≥20% = ++)
527 (FLLEPGNLEV; listed as Homo sapiens) [compound 527] | “++++” (≥75% = ++++)
528 (SVAEGRALMSV; listed as Homo sapiens) [compound 528] | “+++” (≥50 = +++)
529 (LLADELITV; listed as Homo sapiens) [compound 529] | “+++” (≥50 = +++)
530 (VMYADIGGMDI; listed as Homo sapiens) [compound 530] | “+++” (≥50 = +++)
531 (YTLPIASSIRL; listed as Homo sapiens) [compound 531] | “+++” (≥50 = +++)
537 (TLAPGEVLRSV; listed as Homo sapiens) [compound 537] | “+++” (≥50 = +++)

Substance | Peptide exchange (MHC class I binding score, peptide exchange yield)
538 (LLLAHIIAL; listed as Homo sapiens) [compound 538] | “++” (≥20% = ++)
539 (ALFDAQAQV; listed as Homo sapiens) [compound 539] | “+++” (≥50 = +++)
541 (SMLEPVPEL; listed as Homo sapiens) [compound 541] | “+++” (≥50 = +++)
542 (RVWDISTVSSV; listed as Homo sapiens) [compound 542] | “+++” (≥50 = +++)
543 (GLLPTPITQQASL; listed as Homo sapiens) [compound 543] | “+++” (≥50 = +++)
544 (LLWDVPAPSL; listed as Homo sapiens) [compound 544] | “+++” (≥50 = +++)
545 (LLADLLHNV; listed as Homo sapiens) [compound 545] | “+++” (≥50 = +++)
546 (VMIAGKVAVV; listed as Homo sapiens) [compound 546] | “+++” (≥50 = +++)
547 (TLDITPHTV; listed as Homo sapiens) [compound 547] | “+++” (≥50 = +++)
548 (ALWENPESGEL; listed as Homo sapiens) [compound 548] | “++” (≥20% = ++)
549 (AMLENASDIKL; listed as Homo sapiens) [compound 549] | “+++” (≥50 = +++)
550 (FLYDEIEAEVNL; listed as Homo sapiens) [compound 550] | “+++” (≥50 = +++)
551 (KLYESLLPFA; listed as Homo sapiens) [compound 551] | “+++” (≥50 = +++)
552 (GLLDLPFRVGV; listed as Homo sapiens) [compound 552] | “++++” (≥75% = ++++)
553 (SLLNQDLHWSL; listed as Homo sapiens) [compound 553] | “++++” (≥75% = ++++)
554 (LLMPSSEDLLL; listed as Homo sapiens) [compound 554] | “+++” (≥50 = +++)
555 (YVLEGLKSV; listed as Homo sapiens) [compound 555] | “+++” (≥50 = +++)
556 (FLTDLEDLTL; listed as Homo sapiens) [compound 556] | “+++” (≥50 = +++)

Results, then the substance that gave them:

Peptide exchange (MHC class I binding score, peptide exchange yield) | Substance
“+++” (≥50 = +++) | 557 (KLYDDMIRL; listed as Homo sapiens) [compound 557]
“+++” (≥50 = +++) | 558 (GLLENIPRV; listed as Homo sapiens) [compound 558]
“++” (≥20% = ++) | 559 (VTVPPGPSL; listed as Homo sapiens) [compound 559]
“+++” (≥50 = +++) | 560 (ALWDIETGQQTTT; listed as Homo sapiens) [compound 560]
“+++” (≥50 = +++) | 561 (YLQLTQSEL; listed as Homo sapiens) [compound 561]
“+++” (≥50 = +++) | 562 (YLEELPEKLKL; listed as Homo sapiens) [compound 562]
“+++” (≥50 = +++) | 563 (WLLPYNGVTV; listed as Homo sapiens) [compound 563]
“+++” (≥50 = +++) | 564 (TVTNAVVTV; listed as Homo sapiens) [compound 564]
“++” (≥20% = ++) | 565 (ALQETPTSV; listed as Homo sapiens) [compound 565]
“++” (≥20% = ++) | 566 (VIADGGIQNV; listed as Homo sapiens) [compound 566]
“+++” (≥50 = +++) | 567 (SLLPLDDIVRV; listed as Homo sapiens) [compound 567]
“++++” (≥75% = ++++) | 568 (TLYDIAHTPGV; listed as Homo sapiens) [compound 568]
“+++” (≥50 = +++) | 569 (KLVDRTWTL; listed as Homo sapiens) [compound 569]
“++” (≥20% = ++) | 570 (ALANQIPTV; listed as Homo sapiens) [compound 570]
“+++” (≥50 = +++) | 571 (LLLTTIPQI; listed as Homo sapiens) [compound 571]
“+++” (≥50 = +++) | 572 (ALADLIEKELSV; listed as Homo sapiens) [compound 572]
“+++” (≥50 = +++) | 573 (ILVANAIVGV; listed as Homo sapiens) [compound 573]
“++” (≥20% = ++) | 574 (YLLQEPPRTV; listed as Homo sapiens) [compound 574]
“+++” (≥50 = +++) | 575 (YLISQVEGHQV; listed as Homo sapiens) [compound 575]
“++++” (≥75% = ++++) | 576 (ILLNNSGQIKL; listed as Homo sapiens) [compound 576]
“+++” (≥50 = +++) | 577 (VMFEDGVLMRL; listed as Homo sapiens) [compound 577]
“+++” (≥50 = +++) | 578 (FLDPGGPMMKL; listed as Homo sapiens) [compound 578]
“++” (≥20% = ++) | 579 (NLMEMVAQL; listed as Homo sapiens) [compound 579]
“++” (≥20% = ++) | 580 (LLMENAERV; listed as Homo sapiens) [compound 580]
